Usually Kd stands for the constant that tells how readily two partners part at equilibrium. Broadly, the EC50 (read off the curve) is the concentration giving half of the maximal effect.

T1: mouse GBA (endogenous, lung tissue) (mouse, UniProt P17439 20-515)
T1 construct: Endogenous protein precipitated or detected with anti-GBA antibody; also called glucocerebrosidase
T1 sequence (looked up): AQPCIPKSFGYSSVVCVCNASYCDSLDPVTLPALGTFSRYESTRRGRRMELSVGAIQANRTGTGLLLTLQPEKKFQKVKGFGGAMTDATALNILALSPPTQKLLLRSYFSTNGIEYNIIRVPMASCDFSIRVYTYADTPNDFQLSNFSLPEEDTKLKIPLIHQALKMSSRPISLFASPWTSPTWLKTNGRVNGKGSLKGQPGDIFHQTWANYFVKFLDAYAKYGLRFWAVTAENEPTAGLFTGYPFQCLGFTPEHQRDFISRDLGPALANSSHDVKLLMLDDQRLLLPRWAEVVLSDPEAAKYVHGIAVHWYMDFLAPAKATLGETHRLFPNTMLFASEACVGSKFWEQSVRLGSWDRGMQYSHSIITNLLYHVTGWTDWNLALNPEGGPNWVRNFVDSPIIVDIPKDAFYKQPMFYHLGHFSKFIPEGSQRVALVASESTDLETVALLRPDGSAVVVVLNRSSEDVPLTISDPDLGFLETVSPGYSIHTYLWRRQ

B1: Recombinant LIMP2 (R&D Systems Cat. No. 1966-LM-050) (receptor, UniProt Q14108 27-432, looked up)
chain: RVFQKAVDQSIEKKIVLRNGTEAFDSWEKPPLPVYTQFYFFNVTNPEEILRGETPRVEEVGPYTYRELRNKANIQFGDNGTTISAVSNKAYVFERDQSVGDPKIDLIRTLNIPVLTVIEWSQVHFLREIIEAMLKAYQQKLFVTHTVDELLWGYKDEILSLIHVFRPDISPYFGLFYEKNGTNDGDYVFLTGEDSYLNFTKIVEWNGKTSLDWWITDKCNMINGTDGDSFHPLITKDEVLYVFPSDFCRSVYITFSDYESVQGLPAFRYKVPAEILANTSDNAGFCIPEGNCLGSGVLNVSICKNGAPIIMSFPHFYQADERFVSAIEGMHPNQEDHETFVDINPLTGIILKAAKRFQINIYVKKLDDFVETGDIRTMVFPVMYLNESVHIDKETASRLKSMINTT
modifications: biotin-labeled (EZ-Link Sulfo-NHS-LC-Biotin)
notes: Bought protein; also called Lysosomal integral membrane protein 2
B2: Recombinant His-tag PGRN protein (recombinant human progranulin) (ligand)
chain: TRCPDGQFCPVACCLDPGGASYSCCRPLLDKWPTTLSRHLGGPCQVDAHCSAGHSCIFTVSGTSSCCPFPEAVACGDGHHCCPRGFHCSADGRSCFQRSGNNSVGAIQCPDSQFECPDFSTCCVMVDGSWGCCPMPQASCCEDRVHCCPHGAFCDLVHTRCITPTGTHPLAKKLPAQRTNRAVALSSSVMCPDARSRCPDGSTCCELPSGKYGCCPMPNATCCSDHLHCCPQDTVCDLIQSKCLSKENATTDLLTKLPAHTVGDVKCDMEVSCPDGYTCCRLQSGAWGCCPFTQAVCCEDHIHCCPAGFTCDTQKGTCEQGPHQVPWMEKAPAHLSLPDPQALKRDVPCDNVSSCPSSDTCCQLTSGEWGCCPIPEAVCCSDHQHCCPQGYTCVAEGQCQRGSEIVAGLEKMPARRASLSHPRDIGCDQHTSCPVGQTCCPSLGGSWACCQLPHAVCCEDRQHCCPAGYTCNVKARSCEKEVVSAQPATFLARSPHVGVKDVECGEGHFCHDNQTCCRDNRQGWACCPYRQGVCCADRRHCCPAGFRCAARGTKCLRREAPRWDAPLRDPALRQLL
notes: Coated on the plate in the solid phase assay; analyte (200 nM) in SPR; also called rPGRN; His-tagged PGRN; not shown: His tag
B3: mouse LIMP2 (endogenous, lung tissue) (receptor, UniProt O35114 1-478, looked up)
chain: MGRCCFYTAGTLSLLLLVTSVTLLVARVFQKAVDQTIEKNMVLQNGTKVFNSWEKPPLPVYIQFYFFNVTNPEEILQGEIPLLEEVGPYTYRELRNKANIQFGENGTTISAVTNKAYVFERNQSVGDPNVDLIRTINIPLLTVVDLAQLTLLRELIEAMLKAYQQKLFVIHTVHELLWGYKDEILSLVHIFKPDVSPNFGLFYERNGTNDGEYVFLTGEDNYLNFSKIVEWNGKTSLDWWTTDTCNMINGTDGDSFHPLISKDEVLYLFPSDLCRSVHITFSSFENVEGLPAFRYKVPAEILANTSENAGFCIPEGNCMDSGVLNISICKNGAPIIMSFPHFYQADEKFVSAIKGMHPNKEEHESFVDINPLTGIILRGAKRFQINTYVRKLDDFVETGDIRTMVFPVMYLNESVLIDKETANQLKSVINTTLVVTNIPYIIMALGVFFGLVFTWLACRGQGSMDEGTADERAPLIRT
notes: Endogenous protein in lung lysate; also called Lysosomal integral membrane protein 2
B4: mouse alpha-galactosidase A (endogenous, lung tissue) (enzyme, UniProt P51569 32-419, looked up)
chain: LDNGLARTPTMGWLHWERFMCNLDCQEEPDACISEQLFMQMAELMVSDGWRDAGYDYLCIDDCWMAPERDSKGRLQADPQRFPSGIKHLANYVHSKGLKLGIYADVGNKTCAGFPGSFGSYDIDAQTFADWGVDLLKFDGCHCDSVVSLENGYKYMALALNRTGRSIVYSCEWPLYLRPFHKPNYTDIQYYCNHWRNFDDVYDSWESIKNILSWTVVYQKEIVEVAGPGSWNDPDMLVIGNFGLSWDQQVTQMALWAIMAAPLLMSNDLRQISSQAKALLQNKDVIAINQDPLGKQGYCFRKENHIEVWERPLSNLAWAVAVRNLQEIGGPCPYTIQISSLGRGLACNPGCIITQLLPEKVHLGFYEWTLTLKTRVNPSGTVLFRLER
notes: Endogenous protein in lung lysate; also called GLA; alpha-GLA
B5: Recombinant GBA (R&D Systems Cat. No. 7410-GH-010) (enzyme, UniProt P04062 40-536, looked up)
chain: ARPCIPKSFGYSSVVCVCNATYCDSFDPPTFPALGTFSRYESTRSGRRMELSMGPIQANHTGTGLLLTLQPEQKFQKVKGFGGAMTDAAALNILALSPPAQNLLLKSYFSEEGIGYNIIRVPMASCDFSIRTYTYADTPDDFQLHNFSLPEEDTKLKIPLIHRALQLAQRPVSLLASPWTSPTWLKTNGAVNGKGSLKGQPGDIYHQTWARYFVKFLDAYAEHKLQFWAVTAENEPSAGLLSGYPFQCLGFTPEHQRDFIARDLGPTLANSTHHNVRLLMLDDQRLLLPHWAKVVLTDPEAAKYVHGIAVHWYLDFLAPAKATLGETHRLFPNTMLFASEACVGSKFWEQSVRLGSWDRGMQYSHSIITNLLYHVVGWTDWNLALNPEGGPNWVRNFVDSPIIVDITKDTFYKQPMFYHLGHFSKFIPEGSQRVGLVASQKNDLDAVALMHPDGSAVVVVLNRSSKDVPLTIKDPAVGFLETISPGYSIHTYLWRRQ
modifications: biotin-labeled (EZ-Link Sulfo-NHS-LC-Biotin) in the solid phase binding assay only
notes: Bought protein; Immobilised on the COOH1 chip in SPR; also called glucocerebrosidase; beta-glucocerebrosidase

Assay [1] addresses B2. The experiment in a line: solid phase binding assay: PGRN coated at the concentration on the x axis (µg/ml), biotin-labeled LIMP2 added, streptavidin-HRP, OD 450 nm. How it is done: (§1) The plate was washed with 0.1% tween/PBS five times and then blocked with 2% BSA/PBS solution. […] Wash with 0.1% tween/PBS, and coated with streptavidin-HRP (1:2000 dilution) solution for 1 hour. After washing add t h e substrate and stop the reaction with 100 μl 2M H₂SO₄. Read result at UV 450 nm in plate reader.

Assay [2] concerns the target T2, Recombinant sortilin (R&D Systems Cat. No. 3154-ST-050) (UniProt Q99523 78-755).
T2 construct: Bought protein; Immobilised on channel 1 of the chip in SPR
The experiment in a line: SPR, SensiQ Pioneer, COOH1 chip, Sortilin immobilised, PGRN as analyte (data not shown).

In assay [3] the target is B5. The experiment in a line: solid phase binding assay: PGRN coated at the concentration on the x axis (µg/ml), biotin-labeled GBA added, streptavidin-HRP, OD 450 nm. Here is the method:
as §1

Assay [4] addresses T1, mouse GBA (endogenous, lung tissue). The experiment in a line: co-immunoprecipitation from lung lysate of WT and PGRN KO mice, IP: GBA, IB: LIMP2.
Assay [5] has as its target T3, mouse Sortilin (endogenous, lung tissue) (mouse, UniProt Q6PHU5 74-825).
T3 construct: Endogenous protein in lung lysate
The experiment in a line: co-immunoprecipitation from lung lysate of WT and PGRN KO mice, IP: Sortilin, IB: GLA.

Assay [6] has as its target B2. The experiment in a line: SPR (SensiQ Pioneer), GBA immobilised, PGRN injected, running buffer pH 5.5. Here is the method:
(§2) All SPR experiments were done by SensiQ Technologies Inc. (Oklahoma City, Okla.) by using SensiQ Pioneer at a controlled analysis temperature of 25° C., and samples in the instrument sample racks were maintained at 18° C. The running buffer throughout the immobilization and the assay consisted of 10 mM HEPES, 150 mM NaCl, 0.005% Tween 20.
(§3) Data was analyzed using the QDat Analysis Software (SensiQ Technologies and BioLogic Software). All data were double referenced to a reference channel (channel 2) and buffer blanks. The average signal of the buffer blanks was used to subtract injection artifacts. Referenced SPR data from the analysis channels were model fit to ascertain ka, kd, and KD for the interactions.

The target of assay [7] is B2. The experiment in a line: SPR (SensiQ Pioneer), GBA immobilised, PGRN injected, running buffer pH 6.0. How it is done:
as §2, §3

The target in assay [8] is B2. The experiment in a line: SPR (SensiQ Pioneer), GBA immobilised, PGRN injected, running buffer pH 6.5. Here is the method:
as §2, §3

The target of assay [9] is B2. The experiment in a line: SPR (SensiQ Pioneer), GBA immobilised, PGRN injected, running buffer pH 7.4. Here is the method:
as §2, §3

T3 sequence (Q6PHU5 74-825 limits assumed): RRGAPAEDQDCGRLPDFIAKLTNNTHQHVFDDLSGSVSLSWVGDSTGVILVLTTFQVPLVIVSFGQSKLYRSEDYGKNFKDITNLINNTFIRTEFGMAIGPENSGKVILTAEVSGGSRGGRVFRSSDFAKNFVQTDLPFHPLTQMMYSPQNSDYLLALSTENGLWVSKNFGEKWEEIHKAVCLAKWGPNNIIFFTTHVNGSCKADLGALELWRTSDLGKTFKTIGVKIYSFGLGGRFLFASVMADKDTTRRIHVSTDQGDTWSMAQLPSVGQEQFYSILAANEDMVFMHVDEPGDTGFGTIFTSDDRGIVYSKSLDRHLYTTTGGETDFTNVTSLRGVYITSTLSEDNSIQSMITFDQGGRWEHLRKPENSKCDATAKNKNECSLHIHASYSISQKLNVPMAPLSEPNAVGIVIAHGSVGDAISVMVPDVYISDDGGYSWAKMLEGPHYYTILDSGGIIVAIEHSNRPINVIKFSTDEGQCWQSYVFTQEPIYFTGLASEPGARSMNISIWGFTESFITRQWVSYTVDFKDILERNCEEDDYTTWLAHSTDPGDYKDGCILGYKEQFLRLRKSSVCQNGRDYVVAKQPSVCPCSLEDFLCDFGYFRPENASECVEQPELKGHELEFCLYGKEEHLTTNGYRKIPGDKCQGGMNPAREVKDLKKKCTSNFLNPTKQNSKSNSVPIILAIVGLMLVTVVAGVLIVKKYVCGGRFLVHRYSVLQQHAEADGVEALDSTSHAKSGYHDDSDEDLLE

On to B1, for which, in [1], the binding result is “no binding (tested: 5 µg/ml)”.

Turning to B2, the Kd in assay [2] came to 3.67 nM. In assay [3], the “EC50 (read off the curve)” value was ~1 µg/mL.

Turning to B3, in [4], the binding result is “binds”.

For the molecule B4, in assay [5], the binding result is on record as “binds”.

Consider B5, for which the Kd stood at 55 nM in assay [6], 16.9 nM in [7], 20.8 nM in assay [8] and 0.71 nM in assay [9].

These data come from patent US20170049855A1 (NEW YORK UNIVERSITY, published 2017).
